Data: patent US20260049134A1 (UNIVERSITY OF FLORIDA RESEARCH FOUNDATION, published 2026)
Numbering of substitutions follows the chain as printed. Numbers in names are those of the source.

B1: HW-16 chimeric rabbit-human IgG1 LA/LA/PG (antibody, V domains shown)
VH: QSLEESGGRLVTPGTPLTLTCTASGFSLSSYAMSWVRQAPGKGLEWIGTMPTGGGTYYASWAKGRFTISKTSTTVDLQITSPTTEDTATYFCAKHWNIWGPGTLVTISS
VL: DIVLTQTPSSTSTAVGDTVTINCRASQSIGRNLAWFQQKPGQPPKLLIYRASNLASGVPSRFKGSGSRTQFTLTISGVQREDAATYYCLGSYSSSDTAFGGGTELEILR
notes: Fc-silenced (L234A/L235A/P329G) IgG1, kappa; Alexa Fluor 647-labeled in single-step flow cytometry; Cluster C-45
B2: HW-8 chimeric rabbit-human IgG1 LA/LA/PG (antibody, V domains shown)
VH: QSLEESGGRLVTPGTPLTLTCTVSGFSLSSYAMSWVRQAPGKGLEWIGAISTGGSTTYASWAKGRFTISKTSSTTVDLKMTSLTTEDTATYFCVRHFRLWGPGTLVTISS
VL: QVLTQTPSSVSAAVGGTVTIKCQASQSIGSALAWFQQKPGQRPKLLIYRASNLASGVPSRFKGSGSGTEFALTISGVQREDAATYYCLGGAAAVWAFGAGTNVEIKR
notes: as for B1
B3: TH9-0022 (antibody, human IgG1, kappa, L234A L235A, V domains shown)
VH: QSLEESGGRLVTPGTPLTLTCTVSGFSLSSYAMNWVRQAPGKGLEWIGIINSYGSTYYASWAKGRFTISKTSTTVDLKITSPTTEDTATYFCARVTYDSYGYGYAPYGMDLWGPGTLVTVSS
VL: LVMTQTPSSTSNAVGGTVTIKCQASQSIGNVLAWYQQKPGQPPKLLIYAASTLASGVPSRVGGSRSGTEYTLTISGVQREDAATYYCLGSDSDSDIAFGGGTELEILR
notes: also called TH9-022; negative control
B4: HW-42 chimeric rabbit-human IgG1 LA/LA/PG (antibody, V domains shown)
VH: QSVKESEGGLFKPADTLTLTCTVSGFSLSSNEISWVRQAPGEGLEYIGIIDTGGRAYYAVWARSRSTITRNTNLNTVTLKMTSLTAADTATYFCARGGVDTEWYAFSSWGPGTLVTVPS
VL: SFVLTQPASVQVNLGQTVSLTCTADTLSRRYASWYQQKPGQAPVLLIFRDTSRPSGVPDRFSGSSSGDTATLTISGAQAGDEADYYCATSDGSGSNYQYVFGGGTQLTVTG
notes: Fc-silenced (L234A/L235A/P329G) IgG1, lambda; Alexa Fluor 647-labeled in single-step flow cytometry; Cluster C-1
B5: HW-28 chimeric rabbit-human IgG1 LA/LA/PG (antibody, V domains shown)
VH: QKQLVESGGRLVTPGTPLTLTCTASGFSLSSNAMSWVRQAPGEGLQWIGTISSGGSTYYASWAKGRFTISKTSTTVTLKMTSLTTEDTATYFCARGADLHRLWGPGTLVTVSS
VL: B4 VL with A24G, D25K, T26P, R30S, Y31F, L46V, F48Y, D68N, N96S
notes: Fc-silenced (L234A/L235A/P329G) IgG1, lambda; Alexa Fluor 647-labeled in single-step flow cytometry; Cluster C-45
B6: HW-1 chimeric rabbit-human IgG1 LA/LA/PG (antibody, V domains shown)
VH: QSLEESGGGLFKPTDTLTLTCTASGFSLGSSYAISWVRQAPGKELEWIGTIDSGRAYYARWAKSRSTITRNTNENTVTLKMTSLTAADTATYFCARDLIPTYSQDIWGPGTLVTISS
VL: B4 VL with F48Y, D68N, S95N, N96S, G111S
notes: Fc-silenced (L234A/L235A/P329G) IgG1, lambda; Alexa Fluor 647-labeled in single-step flow cytometry; Prototype of cluster C-1
B7: HW-17 chimeric rabbit-human IgG1 LA/LA/PG (antibody, V domains shown)
VH: QSLGESRGRLVTPDETLTLTCTVSGIDLSSNAMSWVRQAPGEGLEWIGTINTGGRAYYASWAKGRFTISRTSTTVDLKMTSLTTEDTATYFCARERYSDGRAYDIWGPGTLVTISS
VL: B4 VL with F48Y, R49T, T51S, S52N, V57I, D68N, S90D, N96I
notes: as for B4
B8: HW-70 chimeric rabbit-human IgG1 LA/LA/PG (antibody, V domains shown)
VH: QSLEESGGRLVTPGTPLTLTCTVSGFSLSSNAMSWVRQAPGKGLEWIGTIDGYGYTYYASWAKGRFTVSKTSTTVDLKITSPTTEDTATYFCAREIYLGSNFWGPGTLVTISS
VL: B4 VL with F48Y, D68N, S90A, N96S, Y99F
notes: as for B4
B9: HW-25 chimeric rabbit-human IgG1 LA/LA/PG (antibody, V domains shown)
VH: QSLEESGGRLVTPGTPLTLTCTVSGFSLSSYAMGWVRQAPGKGLEWIGIIDSRGSTYYATWAKGRFTISKTSTTVDLKITSPTTEDTATYFCAREDSYYYDSFNLWGPGTLVTVSS
VL: B4 VL with F48Y, D68N, N96S, Y99C
notes: as for B4

Tests used:
ANXA1 = target: T1, ANXA1; assay: ELISA on coated ANXA1-His
T1 construct: coated protein in the ELISA; also called ANXA1-His (R&D Systems)
T1 chain: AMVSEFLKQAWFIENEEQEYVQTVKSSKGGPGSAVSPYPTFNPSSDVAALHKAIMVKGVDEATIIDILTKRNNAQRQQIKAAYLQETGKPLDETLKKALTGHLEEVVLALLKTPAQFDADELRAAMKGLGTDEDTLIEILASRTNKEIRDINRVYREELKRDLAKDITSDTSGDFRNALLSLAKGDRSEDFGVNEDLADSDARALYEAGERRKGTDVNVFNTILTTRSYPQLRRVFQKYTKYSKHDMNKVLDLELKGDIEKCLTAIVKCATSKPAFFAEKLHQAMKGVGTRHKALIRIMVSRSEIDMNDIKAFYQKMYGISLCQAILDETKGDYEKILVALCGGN
Procedure: (§1) Recombinant purified ECDs (50-150 ng) of each putative target protein were coated, incubated with 150 ng of the indicated primary antibody, and binding was detected using a peroxidase-conjugated anti-human Fab secondary antibody. Heatmap represents averages of technical triplicates. (8B) Target validation via siRNA knockdown. H929 cells were transfected with siRNA pools targeting the putative antibody targets ICAM1, CADM1, and PTPRG. Cells were then subjected to cognate IgG binding analysis via flow cytometry. (NT, non-targeting siRNA).
(§2) ELISA ELISA was conducted as described previously. Briefly, 50-150 ng of antigen was coated overnight in half-area 96-well plates at 4° C., blocked with 3% BSA at 37° C. for 1 h, and 150 ng of chimeric rabbit/human IgG1 was added, incubating for 2 h at 37° C. […] After incubating at 37° C. for 15 min-1 h (depending on intensity of controls), data were acquired using a SpectraMax M5 plate reader (Molecular Devices).

IGSF11 (VSIG3) [1] = target: T2, IGSF11 (VSIG3); assay: ELISA on coated IGSF11-Fc
T2 construct: coated protein in the ELISA; also called IGSF11-Fc (R&D Systems)
T2 chain: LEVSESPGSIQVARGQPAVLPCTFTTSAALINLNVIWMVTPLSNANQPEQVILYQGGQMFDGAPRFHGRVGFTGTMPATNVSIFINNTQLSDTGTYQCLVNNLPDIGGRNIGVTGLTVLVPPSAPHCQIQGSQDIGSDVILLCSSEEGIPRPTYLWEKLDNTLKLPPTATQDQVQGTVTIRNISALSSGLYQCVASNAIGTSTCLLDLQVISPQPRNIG
Procedure: as §1, §2

DCC = target: T3, DCC; assay: ELISA on coated DCC-His, 150 ng IgG1; None 0.095
T3 construct: coated protein in the ELISA; also called DCC-His (R&D Systems)
T3 chain: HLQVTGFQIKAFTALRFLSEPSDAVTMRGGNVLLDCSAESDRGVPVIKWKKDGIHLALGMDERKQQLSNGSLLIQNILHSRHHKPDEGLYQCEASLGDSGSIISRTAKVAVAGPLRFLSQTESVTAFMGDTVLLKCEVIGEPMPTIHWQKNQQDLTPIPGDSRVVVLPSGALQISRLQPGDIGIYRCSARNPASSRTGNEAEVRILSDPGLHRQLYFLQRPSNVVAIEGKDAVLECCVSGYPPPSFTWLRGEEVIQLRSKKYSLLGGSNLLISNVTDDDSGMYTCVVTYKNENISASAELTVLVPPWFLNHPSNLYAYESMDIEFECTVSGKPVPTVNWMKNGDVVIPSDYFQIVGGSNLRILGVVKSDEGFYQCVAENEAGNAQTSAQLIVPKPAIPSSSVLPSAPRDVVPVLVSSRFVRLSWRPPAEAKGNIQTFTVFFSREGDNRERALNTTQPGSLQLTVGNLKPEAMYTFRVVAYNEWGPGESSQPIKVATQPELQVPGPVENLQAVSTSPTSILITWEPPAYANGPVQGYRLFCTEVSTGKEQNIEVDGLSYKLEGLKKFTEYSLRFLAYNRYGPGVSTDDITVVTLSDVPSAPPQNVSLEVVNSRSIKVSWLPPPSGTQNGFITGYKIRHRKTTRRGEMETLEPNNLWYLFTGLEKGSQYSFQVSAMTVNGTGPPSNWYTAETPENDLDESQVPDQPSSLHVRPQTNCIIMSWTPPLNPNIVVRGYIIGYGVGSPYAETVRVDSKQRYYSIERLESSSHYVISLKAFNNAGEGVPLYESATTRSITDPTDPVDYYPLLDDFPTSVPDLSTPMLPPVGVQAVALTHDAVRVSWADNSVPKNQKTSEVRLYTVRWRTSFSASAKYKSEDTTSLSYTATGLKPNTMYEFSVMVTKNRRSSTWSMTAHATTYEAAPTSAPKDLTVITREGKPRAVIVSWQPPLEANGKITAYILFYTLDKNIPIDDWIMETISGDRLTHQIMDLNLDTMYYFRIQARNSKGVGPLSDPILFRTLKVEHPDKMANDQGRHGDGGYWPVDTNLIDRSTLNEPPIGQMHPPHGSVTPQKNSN
Procedure: as §1, §2

IGSF11 (VSIG3) [2] = target: T2, IGSF11 (VSIG3); assay: ELISA on coated IGSF11-Fc, 150 ng IgG1; None 0.090
Procedure: as §1, §2

IL13RA1 = target: T4, IL13RA1; assay: ELISA on coated IL13RA1-Fc-His, 150 ng IgG1; None 0.094
T4 construct: coated protein in the ELISA; also called IL13RA1-Fc-His (R&D Systems)
T4 chain: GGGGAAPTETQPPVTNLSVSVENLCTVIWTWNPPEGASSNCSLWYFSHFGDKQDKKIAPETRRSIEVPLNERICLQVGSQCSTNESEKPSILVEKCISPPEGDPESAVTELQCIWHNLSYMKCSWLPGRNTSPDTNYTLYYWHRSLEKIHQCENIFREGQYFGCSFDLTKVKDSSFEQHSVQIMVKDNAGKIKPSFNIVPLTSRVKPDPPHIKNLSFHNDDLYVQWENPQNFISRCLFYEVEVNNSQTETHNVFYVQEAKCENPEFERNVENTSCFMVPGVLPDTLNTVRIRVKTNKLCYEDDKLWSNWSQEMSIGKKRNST
Procedure: as §1, §2

SLAMF7 = target: T5, SLAMF7; assay: ELISA on coated SLAMF7-StrepTag, 150 ng IgG1; None 0.047
T5 construct: coated protein in the ELISA; also called SLAMF7-StrepTag
T5 chain: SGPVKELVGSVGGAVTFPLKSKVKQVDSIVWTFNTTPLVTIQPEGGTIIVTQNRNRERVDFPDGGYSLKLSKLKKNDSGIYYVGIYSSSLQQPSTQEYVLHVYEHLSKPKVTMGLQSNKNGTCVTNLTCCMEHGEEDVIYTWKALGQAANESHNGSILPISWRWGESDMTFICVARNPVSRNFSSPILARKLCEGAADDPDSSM
Procedure: as §1, §2

Row | Binder | binding result (ANXA1) | binding result (IGSF11 (VSIG3) [1]) | ELISA Absorbance (405 nm-570 nm) (DCC) | ELISA Absorbance (405 nm-570 nm) (IGSF11 (VSIG3) [2]) | ELISA Absorbance (405 nm-570 nm) (IL13RA1) | ELISA Absorbance (405 nm-570 nm) (SLAMF7)
1 | B1 | no binding (tested: 150 ng IgG1 per well) | no binding (tested: 150 ng IgG1 per well) | 0.129 | 0.087 | 0.163 | 
2 | B2 | no binding (tested: 150 ng IgG1 per well) | no binding (tested: 150 ng IgG1 per well) | 0.074 | 0.069 | 0.077 | 0.049
3 | B3 | no binding (tested: 150 ng IgG1 per well) | no binding (tested: 150 ng IgG1 per well) | 0.079 | 0.08 | 0.08 | 0.052
4 | B4 | no binding (tested: 150 ng IgG1 per well) | no binding (tested: 150 ng IgG1 per well) | 0.098 | 0.088 | 0.102 | 0.054
5 | B5 |  |  | 0.128 | 0.11 |  | 
6 | B6 | no binding (tested: 150 ng IgG1 per well) | no binding (tested: 150 ng IgG1 per well) | 0.068 | 0.074 | 0.08 | 0.053
7 | B7 | no binding (tested: 150 ng IgG1 per well) | no binding (tested: 150 ng IgG1 per well) | 0.077 | 0.094 | 0.073 | 0.053
8 | B8 | no binding (tested: 150 ng IgG1 per well) | no binding (tested: 150 ng IgG1 per well) | 0.086 | 0.085 | 0.085 | 0.047
9 | B9 | no binding (tested: 150 ng IgG1 per well) | no binding (tested: 150 ng IgG1 per well) | 0.063 | 0.07 | 0.074 | 0.054
